Data published in patent US20210061900A1 (ASTUTE MEDICAL, published 2021).
Substitutions are numbered along the chain they refer to.

T1: C-C motif chemokine 14 (CCL14), human (human, UniProt Q16627 20-93)
T1 construct: Residues 20-93 are the mature CCL14 it describes, with signal peptide 1-19; also called HCC-1; NCC-2
T1 sequence: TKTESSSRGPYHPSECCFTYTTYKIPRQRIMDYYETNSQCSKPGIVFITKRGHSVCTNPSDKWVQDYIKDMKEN

B1: 17H2/17K1 (antibody, V domains shown)
VH: QSVKESEGGLFKPADTLTLTCTVSGFSLSSYAINWVRQAPGEGLEYIGWISDVGTAYYASWAKSRSTITRNTDENTVTLKMTSLTAADTATYFCAGGDGSYSNYWVSDIWGQGTLVTVSS
VL: AVVLTQTASPVSAPVGGTVTVKCQASQTINSRLAWYQQKQGQPPKLLIYEASTLASGVPSRFKGSGSGTEYTLTIRGVECADAATYSCQEYADENIFGGGTEVVVK
notes: Rabbit monoclonal IgG expressed in HEK cells; Used as a labelled conjugate; also called 17H2 heavy chain / 17K1 light chain
B2: 18H1/18K1 (antibody, V domains shown)
VH: B1 VH
VL: B1 VL
notes: Rabbit monoclonal IgG expressed in HEK cells; also called 18H1 heavy chain / 18K1 light chain
B3: 10H3/10K1 (antibody, V domains shown)
VH: B1 VH
VL: B1 VL with A8P, P10L, Q24R, T53K
notes: Rabbit monoclonal IgG expressed in HEK cells; also called 10H3 heavy chain / 10K1 light chain
B4: 19H2/19K3 (antibody, V domains shown)
VH: B1 VH with Y31F, T72A
VL: B1 VL with S31N, T53K
notes: Rabbit monoclonal IgG expressed in HEK cells; also called 19H2 heavy chain / 19K3 light chain
B5: 4H1/4K3 (antibody, V domains shown)
VH: B1 VH with Y31F, V77A
VL: B1 VL with S31N, T53K
notes: Rabbit monoclonal IgG expressed in HEK cells; Used as a labelled conjugate; also called 4H1 heavy chain / 4K3 light chain
B6: 25H2/25K1 (antibody, V domains shown)
VH: QSLEESGGDLVKPGASLTLTCTASRFDFSSAYYMCWVRQAPGKGLEWIACIYAGSSGGTYYATWAKGRFTISKTSSTTVTLQLTSLTAADTATYFCAGSTGNSRGSYFNLWGQGTLVTVSS
V domain: AQVLTQTPSPVSAAVGGTVTINCQSSQSVYDNNWLAWYQQKLGQPPKLVIYDASKLASGVPSRFKGSGSGTHFTLTISELQCDDSATYYCQGEYSDIWGFGGGTEVVVK
notes: Rabbit monoclonal IgG expressed in HEK cells; also called 25H2 heavy chain / 25K1 light chain
B7: 3H1/3K1 (antibody, V domains shown)
VH: QSVRESEGGLFKPADTLTLTCTVSGFSLSSDAISWVRQAPGNGLEWIGAIDFGGSAYYASWAKSRSTITRNTNENTVTLKMTSLTAADTATYFCARSPSFGIVDRLDLWGQGTLVTVSS
VL: AVVLTQTASPVSAPVGGTVTIKCQASEDIDSYLAWYQQKPGQPPKLLIYDVFDLSSGVPSRFKGSGSGTEFTLTISDLECADAATYYCQSYYYVLGTTSTDHNSFGGGTEVVVK
notes: Rabbit monoclonal IgG expressed in HEK cells; also called 3H1 heavy chain / 3K1 light chain
B8: 12H2/12K1 (antibody, V domains shown)
VH: B7 VH
VL: B7 VL
notes: Rabbit monoclonal IgG expressed in HEK cells; also called 12H2 heavy chain / 12K1 light chain
B9: 31H1/31K1 (antibody, V domains shown)
VH: B7 VH
VL: B7 VL
notes: Rabbit monoclonal IgG expressed in HEK cells; also called 31H1 heavy chain / 31K1 light chain
B10: 2H3/2K1 (antibody, V domains shown)
VH: QEQLKESGGGLVQPGGSLKLSCKASGFAFSSDYMSWVRQAPGKGLEWIGYIDPIFGSTAYASWVNGRFTISSHNAQNTLYLHLNSLTAADTATYFCARDKDYSSGWGGYFNLWGQGTLVTVSS
VL: AIVMTQTPASVEAAVGGTVTIKCQASQSINSYLAWYQQKPGQPPRLLIYEASTLASGVPSRFKGSGSGTQFTLTISDLECADAATYYCQTYYYSVDSSVGSNAFGGGTEVVVK
notes: Rabbit monoclonal IgG expressed in HEK cells; also called 2H3 heavy chain / 2K1 light chain

How the values were obtained:
[1] = target: T1, C-C motif chemokine 14 (CCL14), human; assay: lateral flow sandwich, CCL14 5 ng/mL; labelled conjugate, with 2H3/2K1 on the strip
Procedure: (§1) Various antibodies of the invention were tested for their ability to form sandwich complexes in a lateral flow format. Urine was used as a sample matrix for CCL14 antigen standards. One member of the antibody pair (the “strip” antibody) was immobilized onto a nitrocellulose membrane, and the other member of the antibody pair was prepared as a labeled conjugate with a label that is detectable by the ASTUTE 140® meter system for reading to the test strip.
(§2) To further understand the ability of the antibodies of the present invention to pair, a matrix of various antibodies was analyzed at a single CCL14 concentration of 5 ng/mL in a 100 μL sample volume. The solid phase “strip” antibody was applied to nitrocellulose in 3 μL of a 0.25 μg/mL solution. The conjugate was mixed with the sample volume to a concentration of 10 μg/mL.

[2] = target: T1, C-C motif chemokine 14 (CCL14), human; assay: binding to arrays of CCL14-derived peptides (epitope mapping)
Procedure: Antibodies were diluted in buffer and applied to the peptide library array. Each antibody tested was optimized for the array by testing different blocking conditions and sample concentration. […] Epitope mapping was precluded in the case of antibodies showing high binding signals throughout the array.

[3] = target: T1, C-C motif chemokine 14 (CCL14), human; assay: lateral flow sandwich, CCL14 5 ng/mL; strip antibody, with 4H1/4K3 conjugate
Procedure: as §1, §2

Binder | binding result [1] | binding result [3] | further results
B1 | binds |  | 
B2 | binds |  | 
B3 |  |  | binding result [2]: binds
B4 | binds |  | 
B5 | binds |  | 
B6 |  |  | binding result [2]: binds
B7 |  | binds | 
B8 |  | binds | 
B9 |  | binds | 
B10 |  | binds | 
